Each block holds one binder with its values, some of them ahead of it.
Columns and labels:
[1] = target: MAGE-A12:170-178 in the context of HLA-Cw7 (subtype not stated at that place) (human); test: cell-based or functional assay
[2] = target: MAGE-A3 168-176 peptide (…) in the context of HLA-A*01 (human); test: cell-based or functional assay

minimum peptide concentration for recognition, relative to TCR 502 [1]: 100 fold (higher than for TCR 502)
B1: anti-MAGE-A12 TCR FM8 (TCR, V domains shown)
V domain 1: QTVTQSQPEMSVQEAETVTLSCTYDTSESDYYLFWYKQPPSRQMILVIRQEAYKQQNATENRFSVNFQKAAKSFSLKISDSQLGDAAMYFCAYRSAQGGSEKLVFGKGTKLTVNP
V domain 2: ETGVTQTPRHLVMGMTNKKSLKCEQHLGHNAMYWYKQSAKKPLELMFVYSLEERVENNSVPSRFSPECPNSSHLFLHLHTLQPEDSALYLCASSQTTYYNEQFFGPGTRLTVLE

minimum peptide concentration for recognition, relative to TCR A10 [2]: 10 fold (higher than for TCR A10)
B2: anti-MAGE-A3 TCR 13-18 (TCR, V domains shown)
V domain 1: QKEVEQDPGPLSVPEGAIVSLNCTYSNSAFQYFMWYRQYSRKGPELLMYTYSSGNKEDGRFTAQVDKSSKYISLFIRDSQPSDSATYLCAMRGAQKLVFGQGTRLTINP
V domain 2: DAMVIQNPRYQVTQFGKPVTLSCSQTLNHNVMYWYQQKSSQAPKLLFHYYDKDFNNEADTPDNFQSRRPNTSFCFLDIRSPGLGDAAMYLCATSWDRGYEQYFGPGTRLTVTE

Source: patent publication US20220195008A1 (US Dept. of Health and Human Services, published 2022)
